In article PMC7806223, “Structures of Rhodopseudomonas palustris RC-LH1 complexes with open or closed quinone channels” (Science Advances, 2021):

T1: protein-W (PufW), C-terminally 10× His-tagged (Rhodopseudomonas palustris CGA009, UniProt Q6N1K3 1-102)
T1 construct: protein-W (PufW, RPA4402) of Rhodopseudomonas palustris, a 10.5-kDa protein with three transmembrane helices; C-terminal amino acids are unresolved in the map; also called PufW-His; RPA4402; source: Rps. palustris CGA009 PufW-His strain, expressed from the native pufW locus; purified within RC-LH1_(14)-W (Ni-NTA IMAC, DEAE, SEC); not shown: 10× His, C-terminal, kept
T1 sequence: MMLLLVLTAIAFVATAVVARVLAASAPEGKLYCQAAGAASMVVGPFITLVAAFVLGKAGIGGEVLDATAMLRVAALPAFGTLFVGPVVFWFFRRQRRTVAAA


Key:
Experiment in all cases: cryo-EM structure; RC-LH1_(14)-W complex purified from the PufW-His strain; in IMAC buffer (20 mM tris-HCl pH 8.0, 200 mM NaCl, 0.03% β-DDM); 2.65 Å
Conditions in all cases: both partners purified
RC-L (PufL) = target: T2, RC-L (PufL) (Rhodopseudomonas palustris CGA009, UniProt O83005 1-277)
T2 construct: reaction center L subunit (PufL) of Rhodopseudomonas palustris; also called subunit L; L polypeptide; source: endogenous, Rps. palustris CGA009 (ΔpufW and PufW-His strains); purified within RC-LH1 complexes from β-DDM-solubilized membranes

RC-M (PufM) = target: T3, RC-M (PufM) (Rhodopseudomonas palustris CGA009, UniProt A0A4Z7 1-307)
T3 construct: reaction center M subunit (PufM) of Rhodopseudomonas palustris; also called subunit M; M polypeptide; source: endogenous, Rps. palustris CGA009 (ΔpufW and PufW-His strains); purified within RC-LH1 complexes from β-DDM-solubilized membranes

[1] = target: T1, protein-W (PufW), C-terminally 10× …

binding result (RC-L (PufL))	binding result (RC-M (PufM))	binding result [1]	Binder
binds	binds		RC-H (PuhA) (natural protein, Rhodopseudomonas palustris CGA009, UniProt A0A4Z9 1-255, looked up, reaction center H subunit (PuhA) of Rhodopseudomonas palustris; C-terminal amino acids are unresolved in the map; also called subunit H; source: endogenous, Rps. palustris CGA009 (ΔpufW and PufW-His strains); purified within RC-LH1 complexes from β-DDM-solubilized membranes) MQPGAYLDLAQVTLYVFWIFFAGLLFYLRREDKREGYPLVADAGSGTRLAKIGVPAPPDPKTYLLRGGATKTVPSTSNDRPNVALTPAAPWPGAPFVPTGNPFADGVGPGSYAQRADVPELGLDNLPIIVPLRAAKGMFLDPRDPNPVGMPVVGCDGVVGGTVTEVWVDRAEVLARYLEVEVAKSRKRVLLPVPFALINDPFGKVSVDAIRGDQFAGVPTTSKGDQVSKLEEDKICAYYGAGTLYATPLRSESLV
		binds	LH1-β (PufB) (natural protein, LH1-β (PufB) of Rhodopseudomonas palustris; mass spectrometry of wild-type RC-LH1: residues Ser2 to Ala53; resolved Gly4 to Tyr52 in RC-LH1_(16) and Ser5 to Tyr52 in RC-LH1_(14)-W, no density for 13 C-terminal residues; 14 copies in RC-LH1_(14)-W, 16 copies in RC-LH1_(16); The termini were found by mass spectrometry on mixed complexes of the wild-type strain; also called β-polypeptide; source: …) not shown
